{
  "source": "patent US20200291098A1",
  "about": "(PANASONIC INTELLECTUAL PROPERTY MANAGEMENT, published 2020)",
  "binders": {"B1": {"name": "VHH antibody consisting of the amino acid sequence represented by SEQ ID NO: 8 (VHH)", "VHH": "EVQLVESGGGLVQPGGSLSLSCAASGFTFSNYYMGWFRQAPGKERQSLATVNSGGTGEAYADSIRGRFTISRDNAKNTVTLQMSSLQPEDTAVYYCARVDGRVLSTIVVSYDYWGQGTQVTVSS"}},
  "key": {"[1]": {"biological_target": "intranuclear protein derived from type-A influenza virus subtype H1N1 (A/Hokkaido/6-5/2014) (type-A influenza virus H1N1 …)"}, "[2]": {"biological_target": "recombinant nucleoprotein (NP) protein derived from influenza virus H1N1 to which a Flag tag was fus (influenza virus H1N1)", "sequence (P03466 whole entry)": "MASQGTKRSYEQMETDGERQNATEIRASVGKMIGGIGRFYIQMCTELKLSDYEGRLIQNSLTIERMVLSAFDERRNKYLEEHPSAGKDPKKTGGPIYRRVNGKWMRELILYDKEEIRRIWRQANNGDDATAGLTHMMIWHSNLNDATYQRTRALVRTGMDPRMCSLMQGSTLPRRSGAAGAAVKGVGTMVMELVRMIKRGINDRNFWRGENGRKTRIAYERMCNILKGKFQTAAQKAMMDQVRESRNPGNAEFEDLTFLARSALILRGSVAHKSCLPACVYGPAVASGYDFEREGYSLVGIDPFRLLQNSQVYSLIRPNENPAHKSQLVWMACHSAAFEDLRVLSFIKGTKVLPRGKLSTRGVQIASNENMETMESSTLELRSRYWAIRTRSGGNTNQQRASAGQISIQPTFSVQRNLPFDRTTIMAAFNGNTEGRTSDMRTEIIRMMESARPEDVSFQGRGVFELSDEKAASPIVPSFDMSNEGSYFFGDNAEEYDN"}},
  "data": [
    {"binder": "B1", "values": [
      {"measurement": "EC50 (read off the curve)", "setting": "[1]", "value": "~8", "unit": "ng/mL"},
      {"measurement": "Kd", "setting": "[2]", "value": 201, "unit": "pM"}
    ]}
  ]
}
